Measured values: patent US6682731 (LUDWIG INSTITUTE FOR CANCER RESEARCH, dated 2004)

Molecular target: T1, HLA-A2 molecule (MHC class I heterodimer, no peptide of the filing added) (human)
T1 construct: as control target of the CTL assays it stood on T2 cells without added peptide or on COS-7 cells transfected with HLA-A2 alone; The subtype is printed only as HLA-A2.01 for the transfected gene; also called HLA-A2.01; MHC class-I molecule
Assay: HLA-A2 assembly/stabilisation in 0.174 cell lysate with 10 and 20 uM peptide, immunoprecipitation with mAb BB7.2, gel
Method: It is an HLA-A2 presenting cell line deficient in the pathway which supplies peptides to the endoplasmic reticulum, the site of assembly of MHC class-I heterodimers. The cell line can assemble MHC class-I molecules, but these are unstable and, on cell lysis, dissociate into free heavy and light chains during overnight incubation. The heterodimers can, however, be stabilized in vitro via addition of appropriate peptide ligands. […] Thus, the stabilized molecules can be immunoprecipitated with antibodies specific for the MHC class-I molecule.
In the first part of these experiments, peptides were tested to determine if they facilitated assembly of HLA-A2 in the cell line. […] The cells were then washed, once, with phosphate buffered saline, and then resuspended in 10 ml of lysis buffer (0.5% NP-40; 0.5% Mega 9, 150 mM NaCl, 5 mM EDTA, 50 mM Tris [pH 7.5], 2 mM phenylmethylsulfonylfluoride, 5 mM iodoacetamide). The lysates were then incubated with peptide (10 μM and 20 μM), for 15–18 hours. Nuclei were then pelleted in a microfuge, and the lysates were precleared, overnight, at 4° C. with 0.2 ml of washed, 10% (w/v) Staphylococcus A organisms. […] The mixtures were incubated for 90 minutes on ice, followed by addition of bovine serum albumin to 1% (w/v), and 100 ul of 5% (w/v) protein-A Sepharose beads.

B1: peptide SEQ ID NO: 7, Thr Leu Val Glu Val Thr Leu Gly Glu Val (peptide)
peptide: TLVEVTLGEV
B1: binds.
